Experimental data: article PMC9969229

Legend:
[1] = target: glycosylated prostate specific antigen (human) (UniProt P07288); test: BLI; […] (0.4 μg mL^-1) […]
[2] = target: neuraminidase-treated glycosylated human PSA (human) (UniProt P07288); test: BLI; […] (15 μg mL^-1) […], in buffer

For Sambucus nigra lectin (natural protein), the maximum signal to noise (PSA against no PSA) [1] was 12.8, the signal to noise (PSA against no PSA) [1] was 1.5 and the reduction in signal against fresh glycosylated PSA [2] was 50%.
